No end group written: not given here.

These results are taken from patent US20230285523A1, “USE OF ELAFIN IN THE TREATMENT OF COVID-19” (priority 2021, published 2023).

The conditions of data set [1]: rats, cited from earlier work.
Data set [2] is described as follows: One phase I and two phase II randomized double-blind placebo-controlled clinical trials in a surgery program. It is filed as in vivo. The source says:
The clinical trials in the surgery development program established an intravenous single dosing scheme with perioperative administration via infusion.

A further data set deals with 20 S proteasome. The settings on record: cited from earlier work.
For data set [3] the following is noted: in vivo; cited from earlier work.
A short description of data set [4]: Two clinical Phase II studies, intravenous doses. It is filed as in vivo. Particulars: intravenous doses of 200 mg.
The nature of data set [5]: Phase I clinical study, single intravenous doses. It is filed as in vivo. The settings on record: single intravenous doses of 20 to 400 mg.
Data set [6] concerns MCP-1 (macrophage chemoattractant protein-1; CCL2). Particulars: U937 cells, LPS; cited from earlier work.
The conditions of data set [7]: after heart transplantation, myocardial infarction, skeletal muscle ischemia; cited from earlier work.
Data set [8] concerns transcription factors AP-1 and NF-κB. Particulars: U937 cells; cited from earlier work.
The mark [9] stands for this setting: after esophageal cancer surgery.

Regarding “99mTc-elafin: 99mTc-labeled elafin used for SPECT pharmacokinetics in rats (AQEPVKGPVSTKPGSCPIILIRCAMLNPPNRCLKDTDCPGIKKCCEGSCGMACFVPQ; ends and bridges not checked; also: 99mTc label; UniProt P19957 61-117, looked up)”, in [1] (24 h p.i.), the “accumulation in other organs, including the brain” value is on record as “no accumulation” and the “radioactivity in the dissected kidney” value is listed as 4.98±1.24 %ID/g. In addition, the “terminal elimination half-life in blood” value in data set [1] (bolus intravenous injection, blood) is 3.33 h. The “maximum accumulation in the kidney” value in [1] (kidney, 5 min post injection, SPECT) is on record as 8.5%±0.1%. Besides, the “share of detected radioactivity in the kidney identified as not metabolized” value in data set [1] (kidney, 24 h p.i.) was 30%.
Consider “Tiprelestat: INN name of elafin; recombinant human protein of 57 amino acids, about 6 kDa, inhibitor of elastase and proteinase 3 (AQEPVKGPVSTKPGSCPIILIRCAMLNPPNRCLKDTDCPGIKKCCEGSCGMACFVPQ; listed as Homo sapiens)”, for which, in data set [2] (setting [9]), the “kidney, liver and heart organ damages” value is “trend towards lower”; the “organ protective effect (length of ICU stay)” value was “organ protective effect was confirmed”. Besides, the “tolerability of intravenous application” value in data set [2] (one phase I and two phase II trials, surgery program) was “well tolerated”. For the same substance, the safety concerns result in data set [2] (surgery program clinical trials) was “No major safety concerns were observed”. Besides, in the data set on 20 S proteasome, the “inhibition of peptidase activities associated with the 20 S proteasome” value is “no inhibition”. Also, the ventilator induced injury entry in data set [3] is given as “able to reduce”. Also, in data set [4], the tolerability entry was “well tolerated”. Besides, the tolerability result in data set [5] is recorded as “well tolerated”. For the same substance, the “production of MCP-1” value in [6] was “inhibition of the production”. Also, the reperfusion injury result in data set [7] is “suppresses reperfusion injury”. In data set [8], the “LPS-induced activation of AP-1 and NF-κB” value is “inhibited”.
